B1: TPR t1 (parent)
chain: GACCAAUCUGCCCUCAGAGCUCGAGAACAUCUUCGGAUGCAGAGGAGGCAGGCUUCGGUGGCGCGAUAGCGCCAACGUCCUCAACCUCCAAUGCAUCCCACCACAUGAUGAUGCCUGAAGAGCCUUGGUUUUUUG

Variants of: B1
Assay: polymerase ribozyme fitness, log enrichment relative to wild type (log ratio); higher = more active; in vitro selection for triplet polymerase activity
Summary of the method: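 Mutant libraries of both subunits of a heterodimeric triplet polymerase ribozyme were PCR-built, transcribed, and selected once in triplicate, with frozen incubation at −7 °C and capture of gel-excised extended constructs on streptavidin beads before RT-PCR. Illumina sequencing of input and output libraries was filtered to genotypes with ≥10 input reads and ≥1 read per output. Fitness is the logarithm of genotype enrichment over wild-type enrichment, using inverse-variance-weighted replicate averages. The logarithm is base 2.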

Variant	polymerase ribozyme fitness (log ratio)
A2U G17C A26U G39A U59G G61U A83G C115U	-6.19
A2G G51U C114U	-6.82
C3G C82A	-2.49
C3G G120A C124G G128C	0.839
A2U C11U C22A A41C G71U C82A C88U A121G	-6.23
A2C C53A	-1.9
C3A C12A	-1.53
C3U C13A A29U G44C C124G U132C	-3.39
C3A G39A G113A C124U	-3.14
C3A G69A	-3.74
C3G U9A G71U G110C	-5.18
C3G C73G	-3.19
A2C G117C U131C U133C	-4.66
A2G G19A	-2.68
C3U C20G G113A	-1.16
C3U C34G C73U C123U	-4.72
C3G A95G C101A A111C	-2.16
C3U C12A A91U	-2.92
C3G C94G C114U G128C	-2.66
A2U C94U	-3.62
C3A C97U	-2.33

Variant	polymerase ribozyme fitness (log ratio)
C3A U9A C28U C53A C94A	-4.65
C3G C102U C124A	-2.89
A2G G10U C88U A119U	-0.34
C3U C11U U87A C124U	0.336
A2G G36A C49G G61U A83U G110U U129C	-4.82
A2C C79A U129C	-2.39
A2G C4U C79A C115A	-5.2
A2U C72G	-1.72
A2U C72U	-2.02
A2C C72A G110U	-4.2
A2G G58A U106A G122U C123U	0.431
A2U G10U C15G G69U U106A	-0.732
A2G C8G G57U C85A	-1.4
A2U C13G G60U C85A	-4.99
A2U C8U G45A C73U A95G G120A	-0.341
C3A U9A C12A A83G	-2.57
A2C G117A	-3
A2C C76U	-2.06
A2G C11G G61A U129A G135U	-2.91
A2G C12G C20A G69U U78C U130C	-1.63
C3A C34U C53A C89A C123G	-5.9

Variant	polymerase ribozyme fitness (log ratio)
A2C G36A A50U G77A C123U	-2.76
A2C U55C C82G A91C A105U C123G	-6.66
C3A A84G	-2.2
C3G U112A C115A	-2.03
C3A U130A	-2.53
A2U C8A A41U C101U U130G	-1.84
A2G C88G G113C G128A U129G	-5.6
A2U C8U G36U C80U G127C U130C	-3.03
C3U G23C G60A U106A A111C	-6.81
C3U C12A C82A	-1.8
C3U C4A	-1.77
C3G C8G	-0.464
C3U C70A C86U A118U	-1.74
C3U C11A G47A U87G	-2.77
A2C G71A U112G	-2.44
C3U A41C C70G U112C C124U	-3.32
A2G C12U C89G	-0.965
A2G C4U G35A G77A C98U C101A	-6.32
A2C G52A C79A A95U C123U G135A	-1.79
C3U C123G	1.6
C3U C123A	0.564

Variant	polymerase ribozyme fitness (log ratio)
A2G C40A G58A	-1.21
C3G C62U	-1.58
C3U C13U G120A	1.11
C3U C79U	-0.681
A2G U38G G42U G61U C73U C115U	-3.74
A2C U7A C49U U96A C101A U125G	-3.99
A2C G71A C82A	-2.88
C3A C40A A91C G117C A119U	-5.83
A2C U21A C89G	-4.49
A2C U9G G61U G110A	-2.69
A2C C40G	-2.5
C3G U7A C11A C40A C73U C85G	-4.89
A2U C4A C56G U78C C79G C101U	-3.31
A2G C12G G17A U54C C88U A91U C101U A105U C114G U131A	-5.89
A2U C115A	-2.22
A2C G45A C53A	-1.45
C3U A27U G52U C72U C76U C85U U116G C124U U129C	-7.12
A2U U32C C62A	-4.44
A2U G71U	-2.05
C3A G120U	-0.479
C3U C11G U21G G113U G127A	-2.58

Source: the RNAGym collection of RNA variant scans (doi:10.1073/pnas.2313332121)
